Measured values from article PMC12115362.

Key:
Test in all cases: SEC; Agilent-1100, TSK G3000SWXL column; 0.2 M NaH2PO4, 0.1 M arginine, 1% IPA, pH 6.5; peaks integrated for approximate trimer percentage; N = 3
[1] = molecular target: hMPV F pre-F benchmark D185P (subtype A2, CAN97-83 ectodomain with foldon) (human metapneumovirus, subtype A2, strain CAN97-83 | T4)
[2] = molecular target: hMPV F pre-F design K362F_G366F (subtype A2, CAN97-83 ectodomain with foldon) (human metapneumovirus, subtype A2, strain CAN97-83 | T4)
[3] = molecular target: hMPV F pre-F design N46V_T160F (subtype A2, CAN97-83 ectodomain with foldon) (human metapneumovirus, subtype A2, strain CAN97-83 | T4)

hMPV F pre-F benchmark D185P (subtype A2, CAN97-83 ectodomain with foldon) (domain or fragment)
Trimer (%) [1]: 97.1%
stoichiometry N [1]: 3

hMPV F pre-F design K362F_G366F (subtype A2, CAN97-83 ectodomain with foldon) (domain or fragment)
Trimer (%) [2]: 76.9%
stoichiometry N [2]: 3

hMPV F pre-F design N46V_T160F (subtype A2, CAN97-83 ectodomain with foldon) (domain or fragment)
Trimer (%) [3]: 94.7%
stoichiometry N [3]: 3
